Reference: IntAct's records for PubMed 16763556

Key:
[1] = biological target: T1, poli_human POLI (UniProt Q9UNA4)
T1 sequence: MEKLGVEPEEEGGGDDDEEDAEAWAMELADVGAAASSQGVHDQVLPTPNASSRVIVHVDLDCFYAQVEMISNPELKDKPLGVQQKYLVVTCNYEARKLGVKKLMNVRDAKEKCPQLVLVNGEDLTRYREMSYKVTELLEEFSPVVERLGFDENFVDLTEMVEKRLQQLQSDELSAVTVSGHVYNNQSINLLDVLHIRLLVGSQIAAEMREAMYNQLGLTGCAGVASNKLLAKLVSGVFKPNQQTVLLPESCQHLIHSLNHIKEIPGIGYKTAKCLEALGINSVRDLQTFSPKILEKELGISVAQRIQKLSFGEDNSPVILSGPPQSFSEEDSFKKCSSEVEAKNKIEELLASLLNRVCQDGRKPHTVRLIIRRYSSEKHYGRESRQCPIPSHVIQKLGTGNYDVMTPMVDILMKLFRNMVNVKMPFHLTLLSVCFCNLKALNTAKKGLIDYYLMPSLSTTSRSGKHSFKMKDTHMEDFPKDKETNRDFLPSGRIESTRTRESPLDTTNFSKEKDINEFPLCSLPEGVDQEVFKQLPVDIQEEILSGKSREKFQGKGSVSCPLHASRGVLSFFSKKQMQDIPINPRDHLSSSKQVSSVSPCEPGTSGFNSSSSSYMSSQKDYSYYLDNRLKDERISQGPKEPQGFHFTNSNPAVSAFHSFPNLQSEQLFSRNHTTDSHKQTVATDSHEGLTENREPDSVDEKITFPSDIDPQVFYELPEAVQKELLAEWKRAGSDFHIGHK

[2] = biological target: T2, polh_human POLH (UniProt Q9Y253)
T2 sequence: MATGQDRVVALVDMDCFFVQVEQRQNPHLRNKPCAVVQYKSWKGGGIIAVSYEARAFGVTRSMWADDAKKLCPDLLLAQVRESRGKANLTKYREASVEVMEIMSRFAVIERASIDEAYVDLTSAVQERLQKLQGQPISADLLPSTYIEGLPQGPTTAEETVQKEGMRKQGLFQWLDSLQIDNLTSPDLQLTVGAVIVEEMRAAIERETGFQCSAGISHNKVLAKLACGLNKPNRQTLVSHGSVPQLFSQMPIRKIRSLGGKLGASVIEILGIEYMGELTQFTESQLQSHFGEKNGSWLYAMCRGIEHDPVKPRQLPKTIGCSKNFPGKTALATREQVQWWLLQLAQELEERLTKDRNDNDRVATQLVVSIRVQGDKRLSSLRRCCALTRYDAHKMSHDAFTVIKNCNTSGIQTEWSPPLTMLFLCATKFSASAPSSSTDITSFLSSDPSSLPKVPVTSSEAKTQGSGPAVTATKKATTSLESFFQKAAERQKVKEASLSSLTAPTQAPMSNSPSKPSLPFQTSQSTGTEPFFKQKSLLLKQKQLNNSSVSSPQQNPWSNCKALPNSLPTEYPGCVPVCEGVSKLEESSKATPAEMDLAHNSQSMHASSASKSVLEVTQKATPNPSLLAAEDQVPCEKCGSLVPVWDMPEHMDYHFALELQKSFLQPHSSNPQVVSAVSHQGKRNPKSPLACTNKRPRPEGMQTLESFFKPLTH

| effect of a mutation on the interaction [1] | effect of a mutation on the interaction [2] | Substance |
| --- | --- | --- |
| disrupting interaction | disrupting interaction | Polyubiquitin-C (Homo sapiens) (from UniProt P0CG48) G75S |
| disrupting interaction | disrupting interaction | Polyubiquitin-C (Homo sapiens) (from UniProt P0CG48) G76S |
